In the supplement of paper PMC9112550, “Optimization of the antimicrobial peptide Bac7 by deep mutational scanning” (BMC Biology, 2022):

system: Escherichia coli TOP10; experiment: shrunken log2 fold change of peptide-encoding DNA abundance (4.5 h post-induction vs induction); higher = less antimicrobial activity (less host growth inhibition); conditions: time post-induction: 4.5 h; library: site-saturation at positions 5, 18, 19, 20
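Also: peptides expressed intracellularly from a pBAD plasmid library in pooled LB shake-flask culture, induced with 0.3% L-arabinose, DNA abundance read by NGS, three biological replicates, DESeq2 with apeglm shrinkage.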

Going from RRIRLRPPRLPRPRPRPEGHPRP to RRIRRRPPRLPRPRPRPSPAPRP, the “shrunken log2 fold change” value rises from -0.107 to 0.868.

Compared with RRIRQRPPRLPRPRPRPCRVPRP, RRIRVRPPRLPRPRPRPIFGPRP is higher in “shrunken log2 fold change” value: -0.306 for the first, -0.015 for the second.

Compared with RRIRSRPPRLPRPRPRPLPYPRP, RRIRKRPPRLPRPRPRPCRSPRP is higher in “shrunken log2 fold change” value: -0.25 for the first, -0.0126 for the second.

RRIRERPPRLPRPRPRPFSDPRP and RRIRQRPPRLPRPRPRPDCKPRP are within 0.2 log units of each other in “shrunken log2 fold change” value: -0.0836 for the first, -0.0311 for the second.

Compared with RRIRSRPPRLPRPRPRPFMHPRP, RRIRIRPPRLPRPRPRPILIPRP is higher in “shrunken log2 fold change” value: -0.321 for the first, -0.097 for the second.

Going from RRIRHRPPRLPRPRPRPGSCPRP to RRIRARPPRLPRPRPRPVAHPRP, the “shrunken log2 fold change” value rises from -0.108 to 0.159.

RRIRARPPRLPRPRPRPIPKPRP and RRIRGRPPRLPRPRPRPKHKPRP are within 0.2 log units of each other in “shrunken log2 fold change” value: 0.394 for the first, 0.448 for the second.

RRIRSRPPRLPRPRPRPDHAPRP and RRIRHRPPRLPRPRPRPWGNPRP are within 0.2 log units of each other in “shrunken log2 fold change” value: 0.0838 for the first, -0.0654 for the second.

Going from RRIRTRPPRLPRPRPRPCDCPRP to RRIRTRPPRLPRPRPRPHFIPRP, the “shrunken log2 fold change” value falls from -0.0712 to -0.321.

Compared with RRIRDRPPRLPRPRPRPGPLPRP, RRIRGRPPRLPRPRPRPDTTPRP is higher in “shrunken log2 fold change” value: 0.0434 for the first, 0.903 for the second.

Going from RRIRKRPPRLPRPRPRPFLFPRP to RRIRVRPPRLPRPRPRPRWLPRP, the “shrunken log2 fold change” value rises from -0.0622 to 0.211.

RRIRQRPPRLPRPRPRPWFSPRP and RRIRQRPPRLPRPRPRPPETPRP are within 0.2 log units of each other in “shrunken log2 fold change” value: -0.102 for the first, 0.00852 for the second.

RRIRHRPPRLPRPRPRPNSSPRP and RRIRFRPPRLPRPRPRPQAGPRP are within 0.2 log units of each other in “shrunken log2 fold change” value: -0.203 for the first, -0.0266 for the second.

RRIRFRPPRLPRPRPRPLEWPRP and RRIRIRPPRLPRPRPRPQVCPRP are within 0.2 log units of each other in “shrunken log2 fold change” value: 0.0696 for the first, 0.0108 for the second.

Compared with RRIRCRPPRLPRPRPRPPNYPRP, RRIRKRPPRLPRPRPRPRGPPRP is higher in “shrunken log2 fold change” value: -0.376 for the first, 1.23 for the second.

Going from RRIRLRPPRLPRPRPRPFHQPRP to RRIRGRPPRLPRPRPRPYFCPRP, the “shrunken log2 fold change” value rises from -1 to -0.119.

RRIRARPPRLPRPRPRPCREPRP and RRIRIRPPRLPRPRPRPQIFPRP are within 0.2 log units of each other in “shrunken log2 fold change” value: 0.0197 for the first, 0.0997 for the second.

RRIRDRPPRLPRPRPRPIRFPRP and RRIRPRPPRLPRPRPRPDEDPRP are within 0.2 log units of each other in “shrunken log2 fold change” value: -0.0156 for the first, 0.00574 for the second.

Compared with RRIRHRPPRLPRPRPRPHPTPRP, RRIRDRPPRLPRPRPRPDPGPRP is higher in “shrunken log2 fold change” value: -0.0838 for the first, 0.506 for the second.

Compared with RRIRNRPPRLPRPRPRPRMKPRP, RRIRARPPRLPRPRPRPFYVPRP is lower in “shrunken log2 fold change” value: -0.0273 for the first, -0.383 for the second.

RRIRDRPPRLPRPRPRPMCRPRP and RRIRTRPPRLPRPRPRPGRFPRP are within 0.2 log units of each other in “shrunken log2 fold change” value: -0.0461 for the first, -0.0311 for the second.

Compared with RRIRCRPPRLPRPRPRPVMSPRP, RRIRMRPPRLPRPRPRPFTAPRP is higher in “shrunken log2 fold change” value: -0.136 for the first, 0.245 for the second.

First: RRIRSRPPRLPRPRPRPDWDPRP
Second: RRIRNRPPRLPRPRPRPHILPRP
The “shrunken log2 fold change” value of the first is higher: 0.157 for the first, -0.106 for the second.

First: RRIRMRPPRLPRPRPRPKQLPRP
Second: RRIRWRPPRLPRPRPRPMIRPRP
The “shrunken log2 fold change” value of the first is higher: 0.83 for the first, -0.348 for the second.

RRIRLRPPRLPRPRPRPIHTPRP and RRIRYRPPRLPRPRPRPYLHPRP are within 0.2 log units of each other in “shrunken log2 fold change” value: -0.133 for the first, -0.0309 for the second.

RRIRFRPPRLPRPRPRPNYDPRP and RRIRNRPPRLPRPRPRPNSMPRP are within 0.2 log units of each other in “shrunken log2 fold change” value: -0.866 for the first, -0.815 for the second.

RRIRFRPPRLPRPRPRPCWKPRP and RRIRDRPPRLPRPRPRPETFPRP are within 0.2 log units of each other in “shrunken log2 fold change” value: -0.0141 for the first, 0.00902 for the second.

Compared with RRIRVRPPRLPRPRPRPPLRPRP, RRIRKRPPRLPRPRPRPMMLPRP is lower in “shrunken log2 fold change” value: 0.93 for the first, -0.0136 for the second.

Compared with RRIRIRPPRLPRPRPRPDVIPRP, RRIRPRPPRLPRPRPRPPWTPRP is higher in “shrunken log2 fold change” value: -0.00836 for the first, 0.267 for the second.

Compared with RRIRARPPRLPRPRPRPDFNPRP, RRIRDRPPRLPRPRPRPPWGPRP is higher in “shrunken log2 fold change” value: 0.0591 for the first, 0.344 for the second.

RRIRDRPPRLPRPRPRPYVFPRP and RRIRCRPPRLPRPRPRPCCFPRP are within 0.2 log units of each other in “shrunken log2 fold change” value: -0.18 for the first, -0.155 for the second.

RRIRQRPPRLPRPRPRPCFVPRP and RRIRMRPPRLPRPRPRPIFDPRP are within 0.2 log units of each other in “shrunken log2 fold change” value: -0.0859 for the first, 0.00763 for the second.

Compared with RRIRCRPPRLPRPRPRPAHEPRP, RRIRERPPRLPRPRPRPPHIPRP is lower in “shrunken log2 fold change” value: 0.238 for the first, -0.366 for the second.

First: RRIRFRPPRLPRPRPRPRSTPRP
Second: RRIRVRPPRLPRPRPRPDHDPRP
The “shrunken log2 fold change” value of the first is higher: 0.421 for the first, -0.485 for the second.

First: RRIRWRPPRLPRPRPRPPRSPRP
Second: RRIRHRPPRLPRPRPRPHEQPRP
The “shrunken log2 fold change” value of the first is higher: 0.733 for the first, -0.0118 for the second.

RRIRVRPPRLPRPRPRPAHVPRP and RRIRQRPPRLPRPRPRPGFSPRP are within 0.2 log units of each other in “shrunken log2 fold change” value: 0.0119 for the first, 0.00737 for the second.

RRIRQRPPRLPRPRPRPISMPRP and RRIRFRPPRLPRPRPRPHADPRP are within 0.2 log units of each other in “shrunken log2 fold change” value: 0.0161 for the first, 0.0798 for the second.

First: RRIRDRPPRLPRPRPRPYRDPRP
Second: RRIRERPPRLPRPRPRPIERPRP
The “shrunken log2 fold change” value of the first is lower: -0.444 for the first, 0.00274 for the second.

Going from RRIRCRPPRLPRPRPRPDDWPRP to RRIRQRPPRLPRPRPRPNHLPRP, the “shrunken log2 fold change” value falls from 0.104 to -1.03.

Compared with RRIRYRPPRLPRPRPRPYTNPRP, RRIRWRPPRLPRPRPRPQFTPRP is higher in “shrunken log2 fold change” value: -1.35 for the first, -0.313 for the second.

RRIRFRPPRLPRPRPRPHEQPRP and RRIRKRPPRLPRPRPRPGYKPRP are within 0.2 log units of each other in “shrunken log2 fold change” value: 0.0928 for the first, 0.236 for the second.

First: RRIRYRPPRLPRPRPRPEYIPRP
Second: RRIRWRPPRLPRPRPRPTCRPRP
The “shrunken log2 fold change” value of the first is lower: -0.348 for the first, 0.0452 for the second.

First: RRIRYRPPRLPRPRPRPFDRPRP
Second: RRIRGRPPRLPRPRPRPRDIPRP
The “shrunken log2 fold change” value of the first is lower: -1.29 for the first, 0.373 for the second.

First: RRIRPRPPRLPRPRPRPNQFPRP
Second: RRIRQRPPRLPRPRPRPMAGPRP
The “shrunken log2 fold change” value of the first is lower: -0.204 for the first, 0.132 for the second.

Compared with RRIRTRPPRLPRPRPRPTQLPRP, RRIRPRPPRLPRPRPRPHHNPRP is lower in “shrunken log2 fold change” value: -0.319 for the first, -0.859 for the second.

First: RRIRCRPPRLPRPRPRPTPEPRP
Second: RRIRMRPPRLPRPRPRPDLHPRP
The “shrunken log2 fold change” value of the first is higher: 0.284 for the first, 0.0663 for the second.

RRIRERPPRLPRPRPRPDETPRP and RRIRWRPPRLPRPRPRPIGAPRP are within 0.2 log units of each other in “shrunken log2 fold change” value: -0.015 for the first, 0.0619 for the second.

Compared with RRIRRRPPRLPRPRPRPRWSPRP, RRIRFRPPRLPRPRPRPLLDPRP is lower in “shrunken log2 fold change” value: 0.498 for the first, -0.0563 for the second.

Compared with RRIRRRPPRLPRPRPRPLSVPRP, RRIRVRPPRLPRPRPRPILFPRP is lower in “shrunken log2 fold change” value: 0.298 for the first, -0.395 for the second.

RRIRHRPPRLPRPRPRPGHKPRP and RRIRKRPPRLPRPRPRPWPSPRP are within 0.2 log units of each other in “shrunken log2 fold change” value: 0.0956 for the first, 0.0175 for the second.

First: RRIRERPPRLPRPRPRPPGGPRP
Second: RRIRPRPPRLPRPRPRPQGTPRP
The “shrunken log2 fold change” value of the first is higher: 0.56 for the first, 0.306 for the second.

RRIRVRPPRLPRPRPRPSEMPRP and RRIRKRPPRLPRPRPRPAHQPRP are within 0.2 log units of each other in “shrunken log2 fold change” value: 0.0713 for the first, 0.162 for the second.

Compared with RRIRQRPPRLPRPRPRPFIIPRP, RRIRPRPPRLPRPRPRPAEGPRP is higher in “shrunken log2 fold change” value: 0.043 for the first, 0.394 for the second.

Going from RRIRARPPRLPRPRPRPVKHPRP to RRIRQRPPRLPRPRPRPMFQPRP, the “shrunken log2 fold change” value falls from 0.0139 to -0.467.

In the case of RRIRLRPPRLPRPRPRPFHDPRP, the “shrunken log2 fold change” value is reported as -0.713.
